28 molecules from patent US20150344570A1 (published 2015) can be followed below.

The labels stand for the following.
T1: FcγRIIa R (human, UniProt P12318 34-217)
T1 construct: extracellular domain; also called FcgRIIa R type; 2aR
T1 sequence (looked up): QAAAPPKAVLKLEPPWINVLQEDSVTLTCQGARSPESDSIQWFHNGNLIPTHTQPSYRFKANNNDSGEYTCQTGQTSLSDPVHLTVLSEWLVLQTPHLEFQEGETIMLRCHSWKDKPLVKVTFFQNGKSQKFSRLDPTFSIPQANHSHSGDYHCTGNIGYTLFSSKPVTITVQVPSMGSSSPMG

B1: GpH7-A5/GpH7-B3 variant H268_01G/GpL16-k0 (antibody, human IgG1, kappa)
heavy 1: not shown
heavy 2: not shown
light: DIVMTQSPLSLPVTPGEPASISCQASESLVHSNRNTYLHWYLQKPGQSPQLLIYKVSNRFSGVPDRFSGSGSGTDFTLKISRVEAEDVGVYYCSQNTHVPPTFGQGTKVEIERTVAAPSVFIFPPSDEQLKSGTASVVCLLNNFYPREAKVQWKVDNALQSGNSQESVTEQDSKDSTYSLSSTLTLSKADYEKHKVYACEVTHQGLSSPVTKSFNRGEC
notes: also called He Ab H268_01G
B2: GpH7-A5/GpH7-B3 variant K334_04F/GpL16-k0 (antibody, human IgG1, kappa)
heavy 1: not shown
heavy 2: not shown
light: B1 light
notes: also called He Ab K334_04F
B3: GpH7-A5/GpH7-B3 variant K326_08L/GpL16-k0 (antibody, human IgG1, kappa)
heavy 1: not shown
heavy 2: not shown
light: B1 light
notes: also called He Ab K326_08L
B4: GpH7-A5/GpH7-B3 variant G237_19Q/GpL16-k0 (antibody, human IgG1, kappa)
heavy 1: not shown
heavy 2: not shown
light: B1 light
notes: also called He Ab G237_19Q
B5: GpH7-A5/GpH7-B3 variant E333_07I/GpL16-k0 (antibody, human IgG1, kappa)
heavy 1: not shown
heavy 2: not shown
light: B1 light
notes: also called He Ab E333_07I
B6: GpH7-A5/GpH7-B3 variant G237_18N/GpL16-k0 (antibody, human IgG1, kappa)
heavy 1: not shown
heavy 2: not shown
light: B1 light
notes: also called He Ab G237_18N
B7: GpH7-A5/GpH7-B3 variant K334_20W/GpL16-k0 (antibody, human IgG1, kappa)
heavy 1: not shown
heavy 2: not shown
light: B1 light
notes: also called He Ab K334_20W
B8: GpH7-A5/GpH7-B3 variant K334_12R/GpL16-k0 (antibody, human IgG1, kappa)
heavy 1: not shown
heavy 2: not shown
light: B1 light
notes: also called He Ab K334_12R
B9: GpH7-A5/GpH7-B3 variant K326_03V/GpL16-k0 (antibody, human IgG1, kappa)
heavy 1: not shown
heavy 2: not shown
light: B1 light
notes: also called He Ab K326_03V
B10: GpH7-A5/GpH7-B3 variant K326_15Y/GpL16-k0 (antibody, human IgG1, kappa)
heavy 1: not shown
heavy 2: not shown
light: B1 light
notes: also called He Ab K326_15Y
B11: GpH7-A5/GpH7-B3 variant E333_04F/GpL16-k0 (antibody, human IgG1, kappa)
heavy 1: not shown
heavy 2: not shown
light: B1 light
notes: also called He Ab E333_04F
B12: GpH7-A5/GpH7-B3 variant G237_15Y/GpL16-k0 (antibody, human IgG1, kappa)
heavy 1: not shown
heavy 2: not shown
light: B1 light
notes: also called He Ab G237_15Y
B13: GpH7-A5/GpH7-B3 variant H268_11K/GpL16-k0 (antibody, human IgG1, kappa)
heavy 1: not shown
heavy 2: not shown
light: B1 light
notes: also called He Ab H268_11K
B14: GpH7-A5/GpH7-B3 variant E333_15Y/GpL16-k0 (antibody, human IgG1, kappa)
heavy 1: not shown
heavy 2: not shown
light: B1 light
notes: also called He Ab E333_15Y
B15: GpH7-A5/GpH7-B3 variant I336_06M/GpL16-k0 (antibody, human IgG1, kappa)
heavy 1: not shown
heavy 2: not shown
light: B1 light
notes: also called He Ab I336_06M
B16: GpH7-A5/GpH7-B3 variant K326_18N/GpL16-k0 (antibody, human IgG1, kappa)
heavy 1: not shown
heavy 2: not shown
light: B1 light
notes: also called He Ab K326_18N
B17: GpH7-A5/GpH7-B3 variant G237_10E/GpL16-k0 (antibody, human IgG1, kappa)
heavy 1: not shown
heavy 2: not shown
light: B1 light
notes: also called He Ab G237_10E
B18: GpH7-A5/GpH7-B3 variant G237_09D/GpL16-k0 (antibody, human IgG1, kappa)
heavy 1: not shown
heavy 2: not shown
light: B1 light
notes: also called He Ab G237_09D
B19: GpH7-A5/GpH7-B3 variant A330_15Y/GpL16-k0 (antibody, human IgG1, kappa)
heavy 1: not shown
heavy 2: not shown
light: B1 light
notes: also called He Ab A330_15Y
B20: GpH7-A5/GpH7-B3 variant A330_12R/GpL16-k0 (antibody, human IgG1, kappa)
heavy 1: not shown
heavy 2: not shown
light: B1 light
notes: also called He Ab A330_12R
B21: GpH7-A5/GpH7-B3 variant G237_02A/GpL16-k0 (antibody, human IgG1, kappa)
heavy 1: not shown
heavy 2: not shown
light: B1 light
notes: also called He Ab G237_02A
B22: GpH7-A5/GpH7-B3 variant G237_06M/GpL16-k0 (antibody, human IgG1, kappa)
heavy 1: not shown
heavy 2: not shown
light: B1 light
notes: also called He Ab G237_06M
B23: GpH7-A5/GpH7-B3 variant K326_12R/GpL16-k0 (antibody, human IgG1, kappa)
heavy 1: not shown
heavy 2: not shown
light: B1 light
notes: also called He Ab K326_12R
B24: GpH7-A5/GpH7-B3 variant H268_03V/GpL16-k0 (antibody, human IgG1, kappa)
heavy 1: not shown
heavy 2: not shown
light: B1 light
notes: also called He Ab H268_03V
B25: GpH7-A5/GpH7-B3 variant K326_04F/GpL16-k0 (antibody, human IgG1, kappa)
heavy 1: not shown
heavy 2: not shown
light: B1 light
notes: also called He Ab K326_04F
B26: GpH7-A5/GpH7-B3 variant L234_04F/GpL16-k0 (antibody, human IgG1, kappa)
heavy 1: not shown
heavy 2: not shown
light: B1 light
notes: also called He Ab L234_04F
B27: GpH7-A5/GpH7-B3 variant A330_11K/GpL16-k0 (antibody, human IgG1, kappa)
heavy 1: not shown
heavy 2: not shown
light: B1 light
notes: also called He Ab A330_11K
B28: GpH7-A5/GpH7-B3 variant I336_18N/GpL16-k0 (antibody, human IgG1, kappa)
heavy 1: not shown
heavy 2: not shown
light: B1 light
notes: also called He Ab I336_18N

For the test, the target named is T1, FcγRIIa R. Kind of test: SPR (Biacore), captured antibody, FcγR as analyte; relative binding activity. On the technique in general: SPR reads the build-up and loss of mass on a sensor chip optically.
For the molecule B1, the He/Con_2aR is 124 % (GpH7-A5/GpH7-B3/GpL16-k0 = 100). Regarding B2, the He/Con_2aR is 110 % (GpH7-A5/GpH7-B3/GpL16-k0 = 100).

For the molecule B3, the He/Con_2aR is 137 % (GpH7-A5/GpH7-B3/GpL16-k0 = 100).

With B4, the He/Con_2aR is 121 % (GpH7-A5/GpH7-B3/GpL16-k0 = 100). For the molecule B5, the He/Con_2aR is 104 % (GpH7-A5/GpH7-B3/GpL16-k0 = 100). As for B6, the He/Con_2aR is 150 % (GpH7-A5/GpH7-B3/GpL16-k0 = 100). The value for B7 was 105 % (GpH7-A5/GpH7-B3/GpL16-k0 = 100). Turning to B8, the He/Con_2aR was 111 % (GpH7-A5/GpH7-B3/GpL16-k0 = 100). The value for B9 was 141 % (GpH7-A5/GpH7-B3/GpL16-k0 = 100). On to B10, for which the He/Con_2aR was 136 % (GpH7-A5/GpH7-B3/GpL16-k0 = 100). As for B11, the figure is 102 % (GpH7-A5/GpH7-B3/GpL16-k0 = 100); as for B12, 129 % (GpH7-A5/GpH7-B3/GpL16-k0 = 100); as for B13, 100 % (GpH7-A5/GpH7-B3/GpL16-k0 = 100).

In the case of B14, the He/Con_2aR is 101 % (GpH7-A5/GpH7-B3/GpL16-k0 = 100).

Turning to B15, the He/Con_2aR is 106 % (GpH7-A5/GpH7-B3/GpL16-k0 = 100). The value for B16 was 115 % (GpH7-A5/GpH7-B3/GpL16-k0 = 100); that for B17 was 116 % (GpH7-A5/GpH7-B3/GpL16-k0 = 100); that for B18 was 156 % (GpH7-A5/GpH7-B3/GpL16-k0 = 100). For B19, the He/Con_2aR was 102 % (GpH7-A5/GpH7-B3/GpL16-k0 = 100). B20: the He/Con_2aR is 104 % (GpH7-A5/GpH7-B3/GpL16-k0 = 100). As for B21, the figure is 126 % (GpH7-A5/GpH7-B3/GpL16-k0 = 100); as for B22, 133 % (GpH7-A5/GpH7-B3/GpL16-k0 = 100).

Consider B23, for which the He/Con_2aR was 103 % (GpH7-A5/GpH7-B3/GpL16-k0 = 100). In the case of B24, the He/Con_2aR is 109 % (GpH7-A5/GpH7-B3/GpL16-k0 = 100). As for B25, the figure is 135 % (GpH7-A5/GpH7-B3/GpL16-k0 = 100).

Take B26: the He/Con_2aR is 104 % (GpH7-A5/GpH7-B3/GpL16-k0 = 100). As for B27, the figure is 110 % (GpH7-A5/GpH7-B3/GpL16-k0 = 100); as for B28, 104 % (GpH7-A5/GpH7-B3/GpL16-k0 = 100).
